Paper PMC8181454

Target: recombinant HPV16 E6 protein (human papillomavirus type 16) (UniProt P03126)
Test: SPR

Chain of UniProt P03126 (P03126 whole entry): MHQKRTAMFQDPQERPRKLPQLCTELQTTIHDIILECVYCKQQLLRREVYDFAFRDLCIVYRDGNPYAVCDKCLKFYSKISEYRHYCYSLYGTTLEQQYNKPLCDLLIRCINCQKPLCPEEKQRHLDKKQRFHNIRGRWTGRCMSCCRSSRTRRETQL

Work on “ZWT affibody (original affibody scaffold molecule, wild-type Z domain) (designed binder)” yielded a koff of 0.000886 s⁻¹.
